Reference: the supplement of paper PMC10126150
± gives the standard deviation of the averaged measurements.
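Further: ATP exposure 15 min at 22 °C before imaging.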

What follows are sequences tested on ATP (assay: switch fluorescence ratio, 500 uM ATP over buffer (Cy3 cluster intensity, sum of 5 cycles each) (fold (ratio)); higher = stronger signal-on switching upon ATP binding; sequences stand for … in TCGTCGGCAGCGTCAGATGTGTATAAGAGACAGTTTTTTTTTTTTTTTTTTTTTTTTT…TC). Conditions: aptamer strand: ATP DNA aptamer (quencher-CACCTGGGGGAGTATTGCGGAGGAAGG + anchor), 100 nM annealed; ATP concentration: 500 uM.
How it was run: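 Clusters with intensities outside 100-1000 RFU were excluded. The remaining Cy3-labelled switching-strand clusters on a modified Illumina MiSeq flow-cell had been annealed to 100 nM quencher-labelled ATP aptamer and imaged in selection buffer, then after 15 min with 500 uM ATP at 22 °C, for five cycles separated by NaOH stripping and re-annealing. The fluorescence ratio, averaged per switch-domain sequence, is each cluster's summed target-cycle Cy3 intensity over its summed buffer-cycle Cy3 intensity.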
GATTGTTCTC gave a switch fluorescence ratio of 0.981 ± 0.011. For ATTTCTCGGT, the switch fluorescence ratio was 1.07 ± 0.066. AGGGTAGCTA was tested, and the switch fluorescence ratio was 0.958 ± 0.016. GTCCGGGTGG gave a switch fluorescence ratio of 1.05 ± 0.1. In the case of TTGCGGAGGG, the switch fluorescence ratio is reported as 1.01 ± 0.069. ATGTGCATAT gave a switch fluorescence ratio of 1.03 ± 0.02. In the case of AATTTGATTC, the switch fluorescence ratio is reported as 1.02 ± 0.058. With CGCGGCTTGG the switch fluorescence ratio was 1.01 ± 0.018. GGGGCTAGTT gave a switch fluorescence ratio of 0.963 ± 0.02. With CCGACCTGTA the switch fluorescence ratio was 1.94 ± 0.22. In the case of CTCCGGGGGA, the switch fluorescence ratio is reported as 1.33 ± 0.31. With TAGATTGTAA the switch fluorescence ratio was 1.05 ± 0.11. For CGGGGGCGTT, the switch fluorescence ratio was 1 ± 0.018. In the case of TTTGAGTCTT, the switch fluorescence ratio is reported as 1 ± 0.039. Work on TGGCTGCAGA yielded a switch fluorescence ratio of 0.972 ± 0.064. ATAGATAGCC gave a switch fluorescence ratio of 0.96 ± 0.015. In the case of ATACGACTTA, the switch fluorescence ratio is reported as 1.04 ± 0.014. GATGTTGTTA was tested, and the switch fluorescence ratio was 0.9647 ± 0.0086. TTTGGATTCC gave a switch fluorescence ratio of 0.998 ± 0.034. In the case of GGCAGGGGTT, the switch fluorescence ratio is reported as 1 ± 0.023. In the case of TATATATAGG, the switch fluorescence ratio is reported as 1 ± 0.025. GCTCAACAGA was tested, and the switch fluorescence ratio was 1.022 ± 0.0057. With CGGGTGCGGG the switch fluorescence ratio was 1.02 ± 0.038. For AGGGTAACGG, the switch fluorescence ratio was 0.995 ± 0.028. For TAGTTGGGGC, the switch fluorescence ratio was 1.01 ± 0.026. TGAAAATAG showed a switch fluorescence ratio of 0.992 ± 0.018. TGCGTTGCTA was tested, and the switch fluorescence ratio was 0.996 ± 0.038. ATCTAATGCC showed a switch fluorescence ratio of 1.01 ± 0.042. Work on GGGGGGGGG yielded a switch fluorescence ratio of 1 ± 0.04. Work on GATTTCGATT yielded a switch fluorescence ratio of 0.969 ± 0.012. With ATTGTGGGCG the switch fluorescence ratio was 0.952 ± 0.017. Work on TACAGGGACC yielded a switch fluorescence ratio of 1.022 ± 0.0034. Work on AACAAAACAA yielded a switch fluorescence ratio of 1.04 ± 0.055. CTCTTAGGGG gave a switch fluorescence ratio of 1.12 ± 0.16. In the case of TCGGGGTGTG, the switch fluorescence ratio is reported as 0.988 ± 0.031. For GAATCAGCGG, the switch fluorescence ratio was 0.989 ± 0.018. Sequence CCTGGGGTTG has a switch fluorescence ratio of 1.05 ± 0.14. Work on CAGTGGTCGG yielded a switch fluorescence ratio of 1 ± 0.038. For TGGTTAAGAT, the switch fluorescence ratio was 0.999 ± 0.038. AACTTGAAAT showed a switch fluorescence ratio of 1.47 ± 0.69. In the case of TTAAGTCCA, the switch fluorescence ratio is reported as 0.995 ± 0.038. With AAGTATATGA the switch fluorescence ratio was 1.004 ± 0.0083. Work on CATTGTGGGC yielded a switch fluorescence ratio of 0.9621 ± 0.0034. TTATTAGATT gave a switch fluorescence ratio of 1.01 ± 0.005. Work on CGGGGGTAGG yielded a switch fluorescence ratio of 1.03 ± 0.049. TCAAATAGCG gave a switch fluorescence ratio of 1.031 ± 0.0032. CAACTATTTT gave a switch fluorescence ratio of 1.002 ± 0.0083. Work on AGAAAAGGGC yielded a switch fluorescence ratio of 1.026 ± 0.0014. For TGGGAAGTTG, the switch fluorescence ratio was 0.956 ± 0.04. CATGGGATGC was tested, and the switch fluorescence ratio was 1.08 ± 0.1. In the case of CGGTCGGGCG, the switch fluorescence ratio is reported as 1.03 ± 0.023. With TACATATTCG the switch fluorescence ratio was 0.989 ± 0.041. Work on AGGGATAAAG yielded a switch fluorescence ratio of 1.01 ± 0.023. Work on CCCAATTTGA yielded a switch fluorescence ratio of 1.06 ± 0.014. Work on ACCATCCGGC yielded a switch fluorescence ratio of 1.12 ± 0.012. Sequence CTGCAAGACA has a switch fluorescence ratio of 2.64 ± 0.72. For ATCATATTCG, the switch fluorescence ratio was 0.99 ± 0.02. TTCAATGGAA showed a switch fluorescence ratio of 1.03 ± 0.011. In the case of GATCAAATAT, the switch fluorescence ratio is reported as 1.01 ± 0.0063. TGGTGTGGAA showed a switch fluorescence ratio of 0.9806 ± 0.0027. ATTATATAAT was tested, and the switch fluorescence ratio was 1.01 ± 0.046. CTGAAAGATA showed a switch fluorescence ratio of 0.977 ± 0.055. AAAGGAAGGG showed a switch fluorescence ratio of 0.989 ± 0.033. In the case of CGTCGGGGCA, the switch fluorescence ratio is reported as 0.964 ± 0.074. AAGCCCAGGG gave a switch fluorescence ratio of 1.403 ± 0.0054. GGTGTGGCGC was tested, and the switch fluorescence ratio was 0.955 ± 0.0063. For TCTGAAATTC, the switch fluorescence ratio was 1.15 ± 0.055. In the case of GGGGTCGGGC, the switch fluorescence ratio is reported as 0.998 ± 0.015. GGTATATGTT showed a switch fluorescence ratio of 1.01 ± 0.015. For GTTAGTTTTT, the switch fluorescence ratio was 0.986 ± 0.02. GGAAATGTTG gave a switch fluorescence ratio of 0.991 ± 0.041. With GGTATTGGTT the switch fluorescence ratio was 0.987 ± 0.048. TCGCGAGGGG gave a switch fluorescence ratio of 0.997 ± 0.025. For ATTAATCTTG, the switch fluorescence ratio was 1.03 ± 0.046. In the case of ATGTGGTGGT, the switch fluorescence ratio is reported as 1 ± 0.043. Sequence GTTATATAGG has a switch fluorescence ratio of 0.982 ± 0.046. AGGTTTCGAG showed a switch fluorescence ratio of 0.997 ± 0.023. For AGTAGAATCG, the switch fluorescence ratio was 0.992 ± 0.033. In the case of TTTTAGGAGC, the switch fluorescence ratio is reported as 0.985 ± 0.023. With CATAGGGGTA the switch fluorescence ratio was 1.01 ± 0.04. For TCAACGGTAT, the switch fluorescence ratio was 1.06 ± 0.029. TTATACACAT gave a switch fluorescence ratio of 1.06 ± 0.023. Work on AAAACTTATG yielded a switch fluorescence ratio of 1.026 ± 0.0033. With ATATACTACA the switch fluorescence ratio was 1.06 ± 0.022. TGGGTTACAT was tested, and the switch fluorescence ratio was 1.01 ± 0.031. TGATTGTGAA showed a switch fluorescence ratio of 1 ± 0.024. In the case of CGCTTTAATT, the switch fluorescence ratio is reported as 0.989 ± 0.032. CCAAGTTGTG gave a switch fluorescence ratio of 1.03 ± 0.074. Work on CTGAATGC yielded a switch fluorescence ratio of 1.17 ± 0.035. Work on GGTGTTGGTT yielded a switch fluorescence ratio of 1.008 ± 0.0093. Sequence CTACGGAGGG has a switch fluorescence ratio of 1.06 ± 0.023. TGATCGGGTA showed a switch fluorescence ratio of 1 ± 0.011. AAGCTAAATG was tested, and the switch fluorescence ratio was 1.01 ± 0.05. AAATTTGGGA was tested, and the switch fluorescence ratio was 0.969 ± 0.027. Work on GTTAAAGGGG yielded a switch fluorescence ratio of 0.983 ± 0.02. Work on TAGGGGGGCA yielded a switch fluorescence ratio of 0.991 ± 0.041. For TTTAGGGTTG, the switch fluorescence ratio was 0.988 ± 0.022. With TTTTGAAAGG the switch fluorescence ratio was 0.976 ± 0.01. In the case of TGCTAGGTCA, the switch fluorescence ratio is reported as 0.969 ± 0.0059. Work on TTGTTTACCG yielded a switch fluorescence ratio of 0.9557 ± 0.0045. Sequence GTAAGTTTTT has a switch fluorescence ratio of 0.984 ± 0.02. TGGCCGTGCT gave a switch fluorescence ratio of 0.904 ± 0.071. For GGTATGCTCT, the switch fluorescence ratio was 0.998 ± 0.065. Sequence ATGTTCGTCA has a switch fluorescence ratio of 0.988 ± 0.044. TCTGGGTGAA showed a switch fluorescence ratio of 1.03 ± 0.081. For TAGGCTATAT, the switch fluorescence ratio was 1.01 ± 0.042. In the case of ATTAAAGGAG, the switch fluorescence ratio is reported as 1.01 ± 0.017. CGGCGGGGGG was tested, and the switch fluorescence ratio was 1.08 ± 0.22. With CGTTGAGGGT the switch fluorescence ratio was 0.99 ± 0.014. For ATGAGTCTAA, the switch fluorescence ratio was 0.992 ± 0.011. Sequence TTGAGTTTTG has a switch fluorescence ratio of 0.985 ± 0.031. CAGCTGGAGC was tested, and the switch fluorescence ratio was 1 ± 0.017. ACTTGGCACA gave a switch fluorescence ratio of 1.08 ± 0.054. GTGCCCCAAG gave a switch fluorescence ratio of 1 ± 0.015. For GAATTATCAT, the switch fluorescence ratio was 0.968 ± 0.015. Work on GGGGTGAATG yielded a switch fluorescence ratio of 0.974 ± 0.04. Work on AGGGAAAGGA yielded a switch fluorescence ratio of 0.9889 ± 0.0085. In the case of ATATATGTGG, the switch fluorescence ratio is reported as 0.981 ± 0.057. TGAAAAAGGG showed a switch fluorescence ratio of 1.04 ± 0.027. Work on TTGAGATTGA yielded a switch fluorescence ratio of 1.01 ± 0.02. Work on CGGTGAAGTT yielded a switch fluorescence ratio of 0.966 ± 0.01. AGGGGGGGGG was tested, and the switch fluorescence ratio was 1.02 ± 0.072. In the case of ATAATTCGTG, the switch fluorescence ratio is reported as 1.01 ± 0.027. GGTATATAAA gave a switch fluorescence ratio of 1.003 ± 0.0029. In the case of AAATTATTTT, the switch fluorescence ratio is reported as 0.999 ± 0.014. TTGTGGATGG showed a switch fluorescence ratio of 0.978 ± 0.039. For CCAGCATAGA, the switch fluorescence ratio was 1.14 ± 0.044. GTAATCTCAG showed a switch fluorescence ratio of 0.997 ± 0.022. For CGGGAATTGG, the switch fluorescence ratio was 0.961 ± 0.067. CCGGAGGTCG showed a switch fluorescence ratio of 0.958 ± 0.012. In the case of GAAATGAAGG, the switch fluorescence ratio is reported as 0.973 ± 0.016. Work on TGGGCCGGTA yielded a switch fluorescence ratio of 1.02 ± 0.031. With TATTTCGGTG the switch fluorescence ratio was 0.982 ± 0.027. For CCCTGGGTCT, the switch fluorescence ratio was 1.028 ± 0.0089. Sequence TATTTGTTTT has a switch fluorescence ratio of 0.998 ± 0.039. GCTTACTGTG gave a switch fluorescence ratio of 1.01 ± 0.037. TTGCACTGAC showed a switch fluorescence ratio of 1.53 ± 0.21. TTGGGGGTT was tested, and the switch fluorescence ratio was 1.03 ± 0.017. Sequence ACGAGCTGCT has a switch fluorescence ratio of 1.032 ± 0.0038. For TTAAGACGTA, the switch fluorescence ratio was 1.03 ± 0.063. Sequence TTTATCTATT has a switch fluorescence ratio of 1 ± 0.012. In the case of TATACTATGT, the switch fluorescence ratio is reported as 1.05 ± 0.024. GGATTACCCA gave a switch fluorescence ratio of 1.04 ± 0.021. Sequence TGAGTTGGAG has a switch fluorescence ratio of 0.9878 ± 0.002. In the case of ATAATAATTT, the switch fluorescence ratio is reported as 1.02 ± 0.011. Sequence TAAAAGAAAA has a switch fluorescence ratio of 1 ± 0.062. Work on TATTGTGTCG yielded a switch fluorescence ratio of 1.02 ± 0.016. AAATAACGAG showed a switch fluorescence ratio of 1 ± 0.036. With TGAAGGCTTT the switch fluorescence ratio was 1.01 ± 0.052. GGAAAAAGGA was tested, and the switch fluorescence ratio was 0.9423 ± 0.0081. ATGTTCAACT was tested, and the switch fluorescence ratio was 0.998 ± 0.016. For GCCATCAGAG, the switch fluorescence ratio was 0.973 ± 0.0044. For TAGTCGCTCC, the switch fluorescence ratio was 1.03 ± 0.034. GATTTATAAT was tested, and the switch fluorescence ratio was 1.014 ± 0.0029. In the case of GTTGCGGAGT, the switch fluorescence ratio is reported as 1 ± 0.021. GGATACGGGA was tested, and the switch fluorescence ratio was 1.05 ± 0.084. With CTCGTAGGGG the switch fluorescence ratio was 1.01 ± 0.039.
